One assay addresses Vκ4Len(1-22) peptide (UniProt P06312). Briefly: EuLISA, peptide-coated wells, mAb titrated from 100 nM.
The target in assay [1] is T1, peptope p66 (p5+14 - SVTVVT linker - 11-1F4 12-mer epitope KHYAAFPENLLI).
T1 construct: also called peptide p66; 11-1F4 peptope
T1 peptide: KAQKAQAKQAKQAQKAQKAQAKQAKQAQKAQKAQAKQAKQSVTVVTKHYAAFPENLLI
Briefly: EuLISA: rVλ6Wil fibrils on the plate, p66 added and washed, murine 11-1F4 titrated 1:2 from 100 nM; 11-1F4 also binds the fibrils themselves at high concentration (FIG. 10).

By EC50 is commonly meant the concentration giving half of the maximal effect. The low end stands for a more potent agent, the high end for a less potent agent. One may read the EC50 (read off the curve) as the concentration needed to bring the measured effect to its halfway point. Read a low EC50 (read off the curve) as higher potency in that assay.

Take murine monoclonal antibody 11-1F4: the EC50 with Vκ4Len(1-22) peptide was 0.5 nM.

B1: murine monoclonal antibody 11-1F4 (antibody, V domains shown)
VH: QVQLKESGPGLVAPSQSLSITCTVSGFSLSSYGVSWVRQPPGKGLEWLGVIWGDGSTNYHPNLMSRLSISKDISKSQVLFKLNSLQTDDTATYYCVTLDYWGQGTSVTVSS
VL: DVVMTQTPLSLPVSLGDQASISCRSSQSLVHRNGNTYLHWYLQKPGQSPKLLIYKVSNRFSGVPDRFSGSGSGTDFTLKISRVEAEDLGLYFCFQTTYVPNTFGGGTKLEIK
B1: in assay [1], the “EC50 (read off the curve)” value is about 800 pM.

(Values after US20190083616A1 (UNIVERSITY OF TENESSEE RESEARCH FOUNDATION, published 2019).)
